According to publication PMC6684243:

Target: N-terminal domain of the HIV-1 capsid protein (HIV-1) (UniProt P12493)
Experiment: ITC

**Q.** Which results are given for “calcium-saturated human calmodulin ((Ca^2+)4-CaM) (from UniProt P0DP23 1-149) (natural protein)”?
**A.** Kd: 3.73 µM; stoichiometry N: 1
